{"source": "paper PMC10425332", "about": "“Programming conformational cooperativity to regulate allosteric protein-oligonucleotide signal transduction”", "binders": {"B1": {"name": "complex CDAB (15Apt and 29Apt thrombin aptamers on B and A) (structured_DNA)", "DNA 1": "AATGGTCCTATGATTCCGTTTTTTTTTTTTGTCACTAGCTACTAGGTAGCTAGTGACGTTATTTTTTTTATGAGAGAGAGTGTGTCC", "DNA 2": "TAACGTCACTAGCTACCTTTTTTTTTTTTTTTTTTTTTTTTTTTTTTTTTTTTTTTT", "DNA 3": "GGACACACTCTCTCTCATTTTAGTCCGTGGTAGGGCAGGTTGGGGTGACT", "DNA 4": "GGTTGGTGTGGTTGGTTTCGGAATCATAGGACCATT"}, "B2": {"name": "single-trigger-site complex with E-29apt (structured_DNA)", "DNA 1": "B1 DNA 1", "DNA 2": "B1 DNA 2", "DNA 3": "GGACACACTCTCTCTCATTTTAGTCCGTGGTAGGGCAGGTTGGGGTGACTTTTCGGAATCATAGGACCATT"}, "B3": {"name": "complex-G C3DGFPAB (T1 3 nt, T2 12 nt) (structured_DNA)", "DNA 1": "AATGGTCCTATGATTCCGTTTTTTTTTTTTTGCACGCTGCCGTTACGGCAGCGTGCAGCTCTTTTTTTTATGAGAGAGAGTGTGTCC", "DNA 2": "GAGCTGCACGCTGCCGTCTTTTTTTTTTTTTTTTTTTTTTTTTTTTTTTTTTTTTTTTT", "DNA 3": "B1 DNA 3", "DNA 4": "B1 DNA 4"}}, "key": {"[1]": {"molecular_target": "T1, thrombin (UniProt P00734;P00734 328-363;364-622)", "experiment": "PAGE and FAM/BHQ1 fluorescence (release of strand D); Mg2+; indirect read-out; complexes annealed in 1x TAE/Mg2+ buffer, DNA complex about 0.5-0.6 uM; thrombin trigger 2 h at room temperature (cell experiments); pH and Mg2+ concentration n"}, "[2]": {"molecular_target": "T1, thrombin", "experiment": "PAGE and fluorescence (release of strand D); Mg2+; indirect read-out; complexes annealed in 1x TAE/Mg2+ buffer, DNA complex about 0.5-0.6 uM; thrombin trigger 2 h at room temperature (cell experiments); pH and Mg2+ concentration n"}, "[3]": {"molecular_target": "T1, thrombin", "experiment": "PAGE (release of DGFP); Mg2+; indirect read-out; complexes annealed in 1x TAE/Mg2+ buffer, DNA complex about 0.5-0.6 uM; thrombin trigger 2 h at room temperature (cell experiments); pH and Mg2+ concentration n"}}, "data": [{"binder": "B1", "values": [{"measurement": "binding result", "setting": "[1]", "result": "binds"}]}, {"binder": "B2", "values": [{"measurement": "binding result", "setting": "[2]", "result": "binds"}]}, {"binder": "B3", "values": [{"measurement": "binding result", "setting": "[3]", "result": "binds"}]}]}
